# Assay results published in article PMC11139899, “Structures of co-transcriptional RNA capping enzymes on paused transcription complex” (Nature Communications, 2024).
# Molecular target: Pol II stalk (RPB4-RPB7), S. scrofa (S. scrofa)
# Test: cryo-EM structure; PEC-RNGTT: phosphorylated Pol II, DNA-RNA scaffold with 17 nt 5′-triphosphate RNA, DSIF, RNGTT, 100 μM GMPPNP, NELF added stepwise; purified and crosslinked by GraFix; NELF seen in an Up and a Down state
# Details: both partners purified
binder,measurement,value
"RNA guanylyltransferase and 5′-phosphatase (RNGTT) (enzyme, human RNGTT, full-length gene; TPase domain, linker, GTase domain with OB fold; Released from the IgG resin by on-column digestion; also called capping enzyme; CE; source: Expi293F, transfected, purified (IgG resin, on-column digestion, Mono Q); not shown: 4 × ProteinA, N-terminal, cleaved) not shown",binding result,binds
